Test results reported in patent US20210284734A1 (SYMPHOGEN A S, published 2021).

Tests used:
Test in all cases: SPR, Fab on captured PD-1-Fc;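 note: Alanine-scan PD-1 Fc fusions expressed transiently in ExpiCHO, captured on anti-human IgG Fc surface in IBIS MX96, anti-PD-1 Fab association 15 min, dissociation 30 min, Langmuir 1:1 fit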
human PD-1 ECD-Fc E84A = target: T1, human PD-1 ECD-Fc E84A (human, UniProt Q15116 21-170)
T1 construct: not shown: human IgG1 Fc, residues P101-K330

human PD-1 ECD-Fc D29A = target: T2, human PD-1 ECD-Fc D29A (human, UniProt Q15116 21-170)
T2 construct: not shown: human IgG1 Fc, residues P101-K330
T2 sequence (Q15116 21-170 D29A): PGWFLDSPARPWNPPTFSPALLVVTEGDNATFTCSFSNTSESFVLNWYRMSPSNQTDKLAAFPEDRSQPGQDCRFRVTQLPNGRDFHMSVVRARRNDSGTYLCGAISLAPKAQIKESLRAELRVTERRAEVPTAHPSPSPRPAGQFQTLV

human PD-1 ECD-Fc G47A = target: T3, human PD-1 ECD-Fc G47A (human, UniProt Q15116 21-170)
T3 construct: not shown: human IgG1 Fc, residues P101-K330

human PD-1 ECD-Fc S71A = target: T4, human PD-1 ECD-Fc S71A (human, UniProt Q15116 21-170)
T4 construct: not shown: human IgG1 Fc, residues P101-K330
T4 sequence (Q15116 21-170 S71A): as the sequence (Q15116 21-170 D29A) above, with A9D, S51A counted along it

human PD-1 ECD-Fc S159A = target: T5, human PD-1 ECD-Fc S159A (human, UniProt Q15116 21-170)
T5 construct: not shown: human IgG1 Fc, residues P101-K330
T5 sequence (Q15116 21-170 S159A): as the sequence (Q15116 21-170 D29A) above, with A9D, S139A counted along it

human PD-1 ECD-Fc Q165A = target: T6, human PD-1 ECD-Fc Q165A (human, UniProt Q15116 21-170)
T6 construct: not shown: human IgG1 Fc, residues P101-K330

human PD-1 ECD-Fc G103A = target: T7, human PD-1 ECD-Fc G103A (human, UniProt Q15116 21-170)
T7 construct: not shown: human IgG1 Fc, residues P101-K330

human PD-1 ECD-Fc K131A = target: T8, human PD-1 ECD-Fc K131A (human, UniProt Q15116 21-170)
T8 construct: not shown: human IgG1 Fc, residues P101-K330
T8 sequence (Q15116 21-170 K131A): as the sequence (Q15116 21-170 D29A) above, with A9D, K111A counted along it

human PD-1 ECD-Fc G22A = target: T9, human PD-1 ECD-Fc G22A (human, UniProt Q15116 21-170)
T9 construct: not shown: human IgG1 Fc, residues P101-K330
T9 sequence (Q15116 21-170 G22A): as the sequence (Q15116 21-170 D29A) above, with G2A, A9D counted along it

human PD-1 ECD-Fc H155A = target: T10, human PD-1 ECD-Fc H155A (human, UniProt Q15116 21-170)
T10 construct: not shown: human IgG1 Fc, residues P101-K330
T10 sequence (Q15116 21-170 H155A): as the sequence (Q15116 21-170 D29A) above, with A9D, H135A counted along it

human PD-1 ECD-Fc D92A = target: T11, human PD-1 ECD-Fc D92A (human, UniProt Q15116 21-170)
T11 construct: not shown: human IgG1 Fc, residues P101-K330
T11 sequence (Q15116 21-170 D92A): as the sequence (Q15116 21-170 D29A) above, with A9D, D72A counted along it

human PD-1 ECD-Fc Q91A = target: T12, human PD-1 ECD-Fc Q91A (human, UniProt Q15116 21-170)
T12 construct: not shown: human IgG1 Fc, residues P101-K330
T12 sequence (Q15116 21-170 Q91A): as the sequence (Q15116 21-170 D29A) above, with A9D, Q71A counted along it

human PD-1 ECD-Fc S157A = target: T13, human PD-1 ECD-Fc S157A (human, UniProt Q15116 21-170)
T13 construct: not shown: human IgG1 Fc, residues P101-K330
T13 sequence (Q15116 21-170 S157A): as the sequence (Q15116 21-170 D29A) above, with A9D, S137A counted along it

human PD-1 ECD-Fc N33A = target: T14, human PD-1 ECD-Fc N33A (human, UniProt Q15116 21-170)
T14 construct: not shown: human IgG1 Fc, residues P101-K330

human PD-1 ECD-Fc Q75A = target: T15, human PD-1 ECD-Fc Q75A (human, UniProt Q15116 21-170)
T15 construct: not shown: human IgG1 Fc, residues P101-K330
T15 sequence (Q15116 21-170 Q75A): as the sequence (Q15116 21-170 D29A) above, with A9D, Q55A counted along it

human PD-1 ECD-Fc L42A = target: T16, human PD-1 ECD-Fc L42A (human, UniProt Q15116 21-170)
T16 construct: not shown: human IgG1 Fc, residues P101-K330
T16 sequence (Q15116 21-170 L42A): as the sequence (Q15116 21-170 D29A) above, with A9D, L22A counted along it

human PD-1 ECD-Fc N49A = target: T17, human PD-1 ECD-Fc N49A (human, UniProt Q15116 21-170)
T17 construct: not shown: human IgG1 Fc, residues P101-K330
T17 sequence (Q15116 21-170 N49A): as the sequence (Q15116 21-170 D29A) above, with A9D, N29A counted along it

human PD-1 ECD-Fc T36A = target: T18, human PD-1 ECD-Fc T36A (human, UniProt Q15116 21-170)
T18 construct: not shown: human IgG1 Fc, residues P101-K330
T18 sequence (Q15116 21-170 T36A): as the sequence (Q15116 21-170 D29A) above, with A9D, T16A counted along it

human PD-1 ECD-Fc P158A = target: T19, human PD-1 ECD-Fc P158A (human, UniProt Q15116 21-170)
T19 construct: not shown: human IgG1 Fc, residues P101-K330
T19 sequence (Q15116 21-170 P158A): as the sequence (Q15116 21-170 D29A) above, with A9D, P138A counted along it

human PD-1 ECD-Fc P28L = target: T20, human PD-1 ECD-Fc P28L (human, UniProt Q15116 21-170)
T20 construct: also called Rat mutation P28L; not shown: human IgG1 Fc, residues P101-K330
T20 sequence (Q15116 21-170 P28L): as the sequence (Q15116 21-170 D29A) above, with P8L, A9D counted along it

human PD-1 ECD-Fc E150A = target: T21, human PD-1 ECD-Fc E150A (human, UniProt Q15116 21-170)
T21 construct: not shown: human IgG1 Fc, residues P101-K330
T21 sequence (Q15116 21-170 E150A): as the sequence (Q15116 21-170 D29A) above, with A9D, E130A counted along it

human PD-1 ECD-Fc L128A = target: T22, human PD-1 ECD-Fc L128A (human, UniProt Q15116 21-170)
T22 construct: not shown: human IgG1 Fc, residues P101-K330

human PD-1 ECD-Fc L138A = target: T23, human PD-1 ECD-Fc L138A (human, UniProt Q15116 21-170)
T23 construct: not shown: human IgG1 Fc, residues P101-K330

human PD-1 ECD-Fc A50G = target: T24, human PD-1 ECD-Fc A50G (human, UniProt Q15116 21-170)
T24 construct: not shown: human IgG1 Fc, residues P101-K330

human PD-1 ECD-Fc P162A = target: T25, human PD-1 ECD-Fc P162A (human, UniProt Q15116 21-170)
T25 construct: not shown: human IgG1 Fc, residues P101-K330

human PD-1 ECD-Fc A132G = target: T26, human PD-1 ECD-Fc A132G (human, UniProt Q15116 21-170)
T26 construct: not shown: human IgG1 Fc, residues P101-K330
T26 sequence (Q15116 21-170 A132G): as the sequence (Q15116 21-170 D29A) above, with A9D, A112G counted along it

human PD-1 ECD-Fc A40T = target: T27, human PD-1 ECD-Fc A40T (human, UniProt Q15116 21-170)
T27 construct: also called Rat mutation A40T; not shown: human IgG1 Fc, residues P101-K330

human PD-1 ECD-Fc G164A = target: T28, human PD-1 ECD-Fc G164A (human, UniProt Q15116 21-170)
T28 construct: not shown: human IgG1 Fc, residues P101-K330
T28 sequence (Q15116 21-170 G164A): as the sequence (Q15116 21-170 D29A) above, with A9D, G144A counted along it

human PD-1 ECD-Fc G90A = target: T29, human PD-1 ECD-Fc G90A (human, UniProt Q15116 21-170)
T29 construct: not shown: human IgG1 Fc, residues P101-K330

human PD-1 ECD-Fc A80G = target: T30, human PD-1 ECD-Fc A80G (human, UniProt Q15116 21-170)
T30 construct: not shown: human IgG1 Fc, residues P101-K330
T30 sequence (Q15116 21-170 A80G): as the sequence (Q15116 21-170 D29A) above, with A9D, A60G counted along it

human PD-1 ECD-Fc Q88A = target: T31, human PD-1 ECD-Fc Q88A (human, UniProt Q15116 21-170)
T31 construct: not shown: human IgG1 Fc, residues P101-K330
T31 sequence (Q15116 21-170 Q88A): as the sequence (Q15116 21-170 D29A) above, with A9D, Q68A counted along it

human PD-1 ECD-Fc A154G = target: T32, human PD-1 ECD-Fc A154G (human, UniProt Q15116 21-170)
T32 construct: not shown: human IgG1 Fc, residues P101-K330
T32 sequence (Q15116 21-170 A154G): as the sequence (Q15116 21-170 D29A) above, with A9D, A134G counted along it

| KD mutant/KD wild-type (human PD-1 ECD-Fc E84A) | KD mutant/KD wild-type (human PD-1 ECD-Fc D29A) | KD mutant/KD wild-type (human PD-1 ECD-Fc G47A) | KD mutant/KD wild-type (human PD-1 ECD-Fc S71A) | KD mutant/KD wild-type (human PD-1 ECD-Fc S159A) | KD mutant/KD wild-type (human PD-1 ECD-Fc Q165A) | KD mutant/KD wild-type (human PD-1 ECD-Fc G103A) | KD mutant/KD wild-type (human PD-1 ECD-Fc G22A) | KD mutant/KD wild-type (human PD-1 ECD-Fc H155A) | KD mutant/KD wild-type (human PD-1 ECD-Fc D92A) | KD mutant/KD wild-type (human PD-1 ECD-Fc Q91A) | KD mutant/KD wild-type (human PD-1 ECD-Fc S157A) | KD mutant/KD wild-type (human PD-1 ECD-Fc N33A) | KD mutant/KD wild-type (human PD-1 ECD-Fc Q75A) | KD mutant/KD wild-type (human PD-1 ECD-Fc L42A) | KD mutant/KD wild-type (human PD-1 ECD-Fc N49A) | KD mutant/KD wild-type (human PD-1 ECD-Fc T36A) | KD mutant/KD wild-type (human PD-1 ECD-Fc P158A) | KD mutant/KD wild-type (human PD-1 ECD-Fc P28L) | KD mutant/KD wild-type (human PD-1 ECD-Fc E150A) | Binder | further results |
| --- | --- | --- | --- | --- | --- | --- | --- | --- | --- | --- | --- | --- | --- | --- | --- | --- | --- | --- | --- | --- | --- |
| 1 ratio | 0.9 ratio | 0.5 ratio | 0.9 ratio | 0.8 ratio | 1.1 ratio | 0.8 ratio | 0.9 ratio | 1 ratio | 0.8 ratio | 1 ratio | 1 ratio | 1.1 ratio | 0.5 ratio | 0.5 ratio | 0.7 ratio | 1 ratio | 0.9 ratio | 0.5 ratio | 1 ratio | 12865.17150 Fab (Fab, V domains shown, monomeric Fab fragment) VH: EVQLLESGGGLVQPGGSLRLSCAASGFDFSDHGMQWVRQAPGKGLEYVGVIDTTGRYTYYAPAVKGRATISRDNSKNTLYLQMNSLRAEDTAVYYCAKTTCVGGYLCNTVGSIDAWGQGTLVTVSS VL: SYELTQDPAVSVALGQTVRITCSGGGSSSYYGWYQQKPGQAPVTVIYDDTNRPSGIPDRFSGSSSGNTASLTITGAQAEDEADYYCGGYEGSSHAGIFGSGTKVTVL | binding result (human PD-1 ECD-Fc K131A): no binding (tested: 1 nM to 50 nM); KD mutant/KD wild-type (human PD-1 ECD-Fc L128A): 2.1 ratio; KD mutant/KD wild-type (human PD-1 ECD-Fc L138A): 1.1 ratio; KD mutant/KD wild-type (human PD-1 ECD-Fc A50G): 0.6 ratio; KD mutant/KD wild-type (human PD-1 ECD-Fc P162A): 1.1 ratio; KD mutant/KD wild-type (human PD-1 ECD-Fc A132G): 1.4 ratio; KD mutant/KD wild-type (human PD-1 ECD-Fc A40T): 1 ratio; KD mutant/KD wild-type (human PD-1 ECD-Fc G164A): 0.9 ratio; KD mutant/KD wild-type (human PD-1 ECD-Fc G90A): 0.8 ratio; KD mutant/KD wild-type (human PD-1 ECD-Fc A80G): 0.4 ratio; KD mutant/KD wild-type (human PD-1 ECD-Fc Q88A): 1.4 ratio; KD mutant/KD wild-type (human PD-1 ECD-Fc A154G): 1 ratio |
| 1 ratio | 1 ratio | 0.6 ratio | 0.9 ratio | 0.9 ratio | 1.1 ratio | 0.9 ratio | 1 ratio | 1 ratio | 0.9 ratio | 1 ratio | 1 ratio | 1 ratio | 0.9 ratio | 2.2 ratio | 1 ratio | 0.9 ratio | 1 ratio | 0.7 ratio | 1 ratio | 13112.15380 Fab (Fab, V domains shown) VH: EVQLLESGGGLVQPGGSLRLSCAASGFTFSSYNMFWVRQAPGKGLEFVAEISGSNTGSRTWYAPAVKGRATISRDNSKNTLYLQMNSLRAEDTAVYYCAKSIYGGYCAGGYSCGVGLIDAWGQGTLVTVSS VL: SYELTQDPAVSVALGQTVRITCSGGSSDYYGWFQQKPGQAPVTVIYYNNKRPSDIPDRFSGSSSGNTASLTITGAQAEDEADYYCGNADSSVGVFGSGTKVTVL | KD mutant/KD wild-type (human PD-1 ECD-Fc K131A): 0.9 ratio; KD mutant/KD wild-type (human PD-1 ECD-Fc L128A): 0.9 ratio; KD mutant/KD wild-type (human PD-1 ECD-Fc L138A): 1.2 ratio; KD mutant/KD wild-type (human PD-1 ECD-Fc A50G): 1.7 ratio; KD mutant/KD wild-type (human PD-1 ECD-Fc P162A): 1.1 ratio; KD mutant/KD wild-type (human PD-1 ECD-Fc A132G): 1 ratio; KD mutant/KD wild-type (human PD-1 ECD-Fc A40T): 0.6 ratio; KD mutant/KD wild-type (human PD-1 ECD-Fc G164A): 1 ratio; KD mutant/KD wild-type (human PD-1 ECD-Fc G90A): 1 ratio; KD mutant/KD wild-type (human PD-1 ECD-Fc A80G): 1 ratio; KD mutant/KD wild-type (human PD-1 ECD-Fc Q88A): 0.9 ratio; KD mutant/KD wild-type (human PD-1 ECD-Fc A154G): 1 ratio |
| 1.3 ratio | 1 ratio | 1.6 ratio | 0.9 ratio | 1.1 ratio | 1.1 ratio | 1.1 ratio | 1 ratio | 1.1 ratio | 1.2 ratio | 0.8 ratio | 0.9 ratio | 1 ratio | 1 ratio | 1.3 ratio | 1.1 ratio | 1 ratio | 1.2 ratio | 1.9 ratio | 1 ratio | 12819.17149 Fab (Fab, V domains shown, monomeric Fab fragment) VH: EVQLLESGGGLVQPGGSLRLSCAASGFTFTRYDMVWVRQAPGKGLEWVAGIGDSNKMTRYAPAVKGRATISRDNSKNTLYLQMNSLRAEDTAVYYCAKGSCIACWDEAGRIDAWGQGTLVTVSS VL: SYELTQDPAVSVALGQTVRITCSGGGSYDGSSYYGWYQQKPGQAPVTVIYNNNNRPSDIPDRFSGSSSGNTASLTITGAQAEDEADYYCGSYDRPETNSDYVGMFGSGTKVTVL | binding result (human PD-1 ECD-Fc K131A): no binding (tested: 1 nM to 50 nM); KD mutant/KD wild-type (human PD-1 ECD-Fc L128A): 17.1 ratio; KD mutant/KD wild-type (human PD-1 ECD-Fc L138A): 1 ratio; KD mutant/KD wild-type (human PD-1 ECD-Fc A50G): 1.4 ratio; KD mutant/KD wild-type (human PD-1 ECD-Fc P162A): 1.3 ratio; KD mutant/KD wild-type (human PD-1 ECD-Fc A132G): 53.4 ratio; KD mutant/KD wild-type (human PD-1 ECD-Fc A40T): 2 ratio; KD mutant/KD wild-type (human PD-1 ECD-Fc G164A): 1.1 ratio; KD mutant/KD wild-type (human PD-1 ECD-Fc G90A): 1 ratio; KD mutant/KD wild-type (human PD-1 ECD-Fc A80G): 1.2 ratio; KD mutant/KD wild-type (human PD-1 ECD-Fc Q88A): 1.4 ratio; KD mutant/KD wild-type (human PD-1 ECD-Fc A154G): 0.8 ratio |
